In patent publication US20230212306A1 (Daiichi Sankyo, published 2023):

T1: monkey TLR7-Flag-His×6, expressed in Ba/F3 cells (monkey, UniProt Q9NYK1 27-1049 (human entry))
T1 construct: cells permeabilised with 0.1% saponin; not shown: Flag-His×6 tag added to the C-terminus
T1 chain: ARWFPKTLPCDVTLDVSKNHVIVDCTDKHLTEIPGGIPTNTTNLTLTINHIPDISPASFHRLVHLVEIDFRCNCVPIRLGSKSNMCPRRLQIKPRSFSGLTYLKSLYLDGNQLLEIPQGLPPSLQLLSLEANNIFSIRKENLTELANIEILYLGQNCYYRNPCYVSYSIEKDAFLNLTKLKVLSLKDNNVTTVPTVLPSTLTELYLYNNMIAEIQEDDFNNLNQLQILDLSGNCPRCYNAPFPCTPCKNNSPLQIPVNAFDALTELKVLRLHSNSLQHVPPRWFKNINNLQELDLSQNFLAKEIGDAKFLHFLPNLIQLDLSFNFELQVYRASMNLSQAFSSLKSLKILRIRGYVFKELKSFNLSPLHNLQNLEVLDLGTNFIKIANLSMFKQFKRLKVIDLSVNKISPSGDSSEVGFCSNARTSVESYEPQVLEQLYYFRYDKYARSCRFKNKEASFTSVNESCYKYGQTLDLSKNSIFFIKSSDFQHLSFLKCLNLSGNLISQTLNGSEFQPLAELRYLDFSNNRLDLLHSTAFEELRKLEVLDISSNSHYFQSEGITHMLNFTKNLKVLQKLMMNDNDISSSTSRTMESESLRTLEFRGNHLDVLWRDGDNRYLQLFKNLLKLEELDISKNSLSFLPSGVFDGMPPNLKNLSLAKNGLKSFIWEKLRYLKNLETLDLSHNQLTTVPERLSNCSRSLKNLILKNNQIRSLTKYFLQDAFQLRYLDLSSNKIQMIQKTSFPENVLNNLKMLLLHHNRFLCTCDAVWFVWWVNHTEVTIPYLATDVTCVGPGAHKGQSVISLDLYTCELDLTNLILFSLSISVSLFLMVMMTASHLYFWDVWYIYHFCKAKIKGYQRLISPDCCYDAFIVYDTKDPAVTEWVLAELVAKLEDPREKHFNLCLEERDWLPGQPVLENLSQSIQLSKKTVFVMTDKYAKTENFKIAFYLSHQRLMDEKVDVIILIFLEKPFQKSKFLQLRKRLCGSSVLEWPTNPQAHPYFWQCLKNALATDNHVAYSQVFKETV

T2: human TLR7-Flag-His×6 (human TLR7 variant 2), expressed in Ba/F3 cells together with human Unc93B1-HA×2 (human, UniProt Q9NYK1 27-1049)
T2 construct: Cells were permeabilised with 0.1% saponin before staining; also called hTLR7-Flag-His×6; not shown: Flag-His×6 tag added to the C-terminus
T2 sequence: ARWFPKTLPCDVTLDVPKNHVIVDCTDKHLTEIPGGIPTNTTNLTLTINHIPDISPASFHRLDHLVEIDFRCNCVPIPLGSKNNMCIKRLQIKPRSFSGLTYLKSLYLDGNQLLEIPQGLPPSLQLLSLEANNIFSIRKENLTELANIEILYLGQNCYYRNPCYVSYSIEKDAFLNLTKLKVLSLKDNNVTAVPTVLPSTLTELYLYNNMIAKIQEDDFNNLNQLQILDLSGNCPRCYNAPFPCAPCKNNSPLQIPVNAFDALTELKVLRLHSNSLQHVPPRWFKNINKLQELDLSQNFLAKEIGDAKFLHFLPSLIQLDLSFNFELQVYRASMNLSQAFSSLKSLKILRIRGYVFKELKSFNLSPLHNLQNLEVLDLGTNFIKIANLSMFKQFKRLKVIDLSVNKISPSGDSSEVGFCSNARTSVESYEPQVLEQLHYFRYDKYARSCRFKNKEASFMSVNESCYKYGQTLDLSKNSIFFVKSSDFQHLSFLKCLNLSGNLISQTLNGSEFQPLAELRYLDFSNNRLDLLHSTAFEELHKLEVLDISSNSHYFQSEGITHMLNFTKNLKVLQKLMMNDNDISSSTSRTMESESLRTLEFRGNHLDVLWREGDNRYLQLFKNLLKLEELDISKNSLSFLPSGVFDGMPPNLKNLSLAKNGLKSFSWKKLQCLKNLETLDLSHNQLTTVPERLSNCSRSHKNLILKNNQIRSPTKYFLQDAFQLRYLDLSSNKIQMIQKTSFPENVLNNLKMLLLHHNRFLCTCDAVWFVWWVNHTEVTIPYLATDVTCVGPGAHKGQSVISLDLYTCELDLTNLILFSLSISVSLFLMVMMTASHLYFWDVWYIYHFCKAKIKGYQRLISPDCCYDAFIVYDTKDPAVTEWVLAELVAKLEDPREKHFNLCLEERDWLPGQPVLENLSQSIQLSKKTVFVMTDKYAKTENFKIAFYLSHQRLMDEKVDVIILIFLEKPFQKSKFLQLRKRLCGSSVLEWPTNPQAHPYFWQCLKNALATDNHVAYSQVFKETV

B1: NB7 antibody (antibody, IgG1, V domains shown)
VH: DVQLQESGPGLVKPSQSLSLTCTVTGYSITSDYAWNWIRQFPGNKLEWMGHISYRGNTNYNPSLKSRISITRDTSKNQFFLQLNSVTTEDTATYYCASWNYYGYVDYAMDYWGQGTSVTVSS
VL: DIQMTQTPSSLSASLGDRVTISCRASQDISNYLNWYQQKPDGTVKLLIYYTSRLHSGVPSRFSGSGSGTDYSLTINNLEQEDIATYFCQQGDTFPTFGGGTKLEIK
notes: also called mouse anti-human TLR7 antibody (NB7)
B2: FAN2 antibody (antibody, IgG1, V domains shown)
VH: QVQLKESGPGLVAPSQSLSITCTVSGFSLTGYGVNWVRQPPGKGLEWLGMIWGDGSTDYNSALKSRLSIRKDNSKSQVFLKMNSLQTDDTARYYCARDKGYDGYYYAMDYWGQGTSVTVSS
VL: DIQMTQSPASLSASVGETVTITCRASENIYSYLAWYQQKQGKSPQLLVYDAKTLAEGVPSRFSGSGSGTQFSLKINSLQPEDFGSYYCQHHYGIPYTFGGGTKLEIK
notes: also called mouse anti-human TLR7 antibody (FAN2)
B3: AT01 antibody (antibody, IgG1, V domains shown)
VH: QVQLQQPGAELVKPGASVNLSCKASGYTFTNNWLHWVKQRPGRGLEWIGDIYPSNGRTNYNEQFKTKATLTVDKSSSTAYMQLSSLTSEDSAVYFCARERGYFDYWGQGTALTVSS
VL: DIQMTQSPSSLSTSLGGKVTITCKASQDINKYIAWYQHKPGKGPRLLIHYTSTLQPGIPSRFSGSGSGRDYSFSISNLEPEDIATYYCLQYDYLLTFGAGTKLELK
notes: also called mouse anti-human TLR7 antibody (AT01)

Molecular target: T1, monkey TLR7-Flag-His×6, expressed in …
Experiment: flow cytometry (MFI) on saponin-permeabilised Ba/F3 cells expressing monkey TLR7-Flag-His×6
From the text: (§1) The Ba/F3 cell line expressing human TLR7-Flag-His×6/human Unc93B1-HA×2 established above in 1)-1-1, the Ba/F3 cell line expressing mouse TLR7-Flag-His×6 established above in 2)-1-1, the Ba/F3 cell line expressing rat TLR7-Flag-His×6×2 established above in 2)-1-2, and the Ba/F3 cell line expressing monkey TLR7-Flag-His×6 established above in 2)-1-3 were subjected to membrane permeation with 0.1% Saponin and stained using AT01 antibody, NB7 antibody, and FAN2 antibody, and a secondary antibody, Goat anti-mouse IgG (H+L)-PE (eBioscience). The binding selectivity of each antibody was evaluated by comparing the average fluorescence intensity (MFI) based on flow cytometry analysis.

binding result	Binder
binds	B1
binds	B2
binds	B3

Each binder was assayed against T2, human TLR7-Flag-His×6 (human TLR7 …) (assay: flow cytometry (MFI) on saponin-permeabilised Ba/F3 cells expressing human TLR7-Flag-His×6/human Unc93B1-HA×2).
From the text: as §1

binding result	Binder
binds	B1
binds	B2
binds	B3
